Changes are numbered by the printed parent chain.
B1: Mutant 37-DXd (conjugate)
heavy: QVQLVESGGGLVQPGGSLRLSCAASGITFPVNAYGWYRQAPGKQRDLVAIISAGGTTNYADSVKGRFTISRDNSKNTLYLQMNSLRAEDTAVYYCYLQRRIGMLRDYWGQGTQVTVSSERKCDDCVECPPCPERKCCVECPPCPAPPVAGPSVFLFPPKPKDTLMISRTPEVTCVVVDVSHEDPEVQFNWYVDGVEVHNAKTKPREEQFNSTFRVVSVLTVVHQDWLNGKEYKCKVSNKGLPAPIEKTISKTKGQPREPQVYTLPPSREEMTKNQVSLTCLVKGFYPSDIAVEWESNGQPENNYKTTPPMLDSDGSFFLYSKLTVDKSRWQQGNVFSCSVMHEALHNHYTQKSLSLSPGK
B2: Mutant 38-DXd (conjugate)
heavy: B1 heavy with D123E, D124E

Columns and labels:
[1] = tested on: OVCAR-3 cells; test: Cell killing assay, cell viability by CellTiter-Glo; assay type: cell-based, human; conditions: 5 days at 37°C; compared to Antibody 1-DXd, FIG. 11
Description: OVCAR-3 cells were seeded into a 96-well plate at a density of 5,000 cells per well and cultured overnight at 37°C. Antibody 1-DXd, Mutant 22-DXd, Mutant 23-DXd, Mutant 37-DXd, Mutant 38-DXd, Mutant 39-DXd, and Mutant 40-DXd were serially diluted and added to the 96-well plate containing OVCAR-3 cells, followed by incubation at 37°C for 5 days. Cell viability was measured using CellTiter-Glo (Promega) to evaluate the killing effects of the antibody-drug conjugates.

[2] = Size-exclusion chromatography analysis of aggregate formation; assay type: physicochemical; conditions: DXd conjugates, FIG. 7 and FIG. 9
Description: Size-exclusion chromatography analysis was performed. […]
Based on Antibody 3 and Antibody 4, amino acid residues with different properties were inserted between the cysteine residues at positions 4 and 5. Specifically: nonpolar amino acids, exemplified by the insertion of two alanine residues (A); polar uncharged amino acids, exemplified by the insertion of two serine residues (S); basic amino acids, exemplified by the insertion of two lysine residues (K); and acidic amino acids, exemplified by the insertion of two glutamic acid residues (E) or two aspartic acid residues (D), as shown in Table 5. The different mutants were expressed and purified. […]
The different mutants listed in Table 6 were expressed and purified. […] The thermal stability of these ten heavy-chain antibodies was further evaluated using dynamic light scattering (DLS). A DLS (Wyatt) instrument was used to monitor light scattering of the antibodies during heating from 25 °C to 85 °C, thereby determining the aggregation temperature (Tagg) of the antibodies.
VHH1 was separately linked to the engineered human IgG2 Fc or the engineered human IgG4 Fc shown in Table 7 to construct heavy-chain antibodies. After expression and purification, Mutant 37, Mutant 38, Mutant 39, and Mutant 40 were obtained.

[3] = Hydrophobic interaction chromatography and LC-MS analysis of drug loading; assay type: physicochemical; conditions: after TCEP reduction and conjugation with maleimide-GGFG-DXd
Description: Antibody 1 and Antibody 2 were separately incubated with TCEP (Sigma) to reduce and open the disulfide bonds between the two heavy chains, followed by the addition of maleimide-GGFG-DXd (MedChemExpress) for conjugation. The conjugates were then purified using a desalting column to remove excess small-molecule drug.

Row | Molecule | killing effect on OVCAR-3 cells [1] | size-exclusion chromatography peak profile after conjugation [2] | drug-to-antibody ratio (DAR) value [3]
1 | B1 | significantly enhanced killing effect | normal | 8
2 | B2 | significantly enhanced killing effect | normal | 8
